The supplement of paper PMC10567573

B1: KRT13 (parent)
chain: TPGIDLTRVLAEMREQYEAMAERN

Variants of: B1
Test: protein stability index of a GFP-peptide fusion (GPS, HEK-293T) (PSI 1-6); higher = more stable
Details: c terminus: a fixed tail appended
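Note: lentivirally expressed fusions sorted by FACS into six bins by GFP to DsRed ratio, PSI derived from sequencing read proportions per bin multiplied by bin number.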

| Variant | protein stability index |
| --- | --- |
| TPGIDLTFVLAEMREQYEAMAERN [R8F] | 3.13 |
| TPGIDLTRVLAEMREPYEAMAERN [Q16P] | 4.08 |
| TPGPDLTRVLAEMREQYEAMAERN [I4P] | 4.39 |
| TPGIDLTRVLAEMREQYNAMAERN [E18N] | 3.5 |
| TPGIDLTRVLAEMREQYELMAERN [A19L] | 2.92 |
| TPGIDLTQVLAEMREQYEAMAERN [R8Q] | 4.15 |
| TPGIDLTRVLAEMREQYEAHAERN [M20H] | 4.32 |
| LPGIDLTRVLAEMREQYEAMAERN [T1L] | 2.71 |
| TPGIDLTRVHAEMREQYEAMAERN [L10H] | 4.95 |
| TPGIDLTRVLAEMREQYECMAERN [A19C] | 3.99 |
| TPCIDLTRVLAEMREQYEAMAERN [G3C] | 2.63 |
| TPGIDLTRVLAEMREQHEAMAERN [Y17H] | 4.76 |
| TTGIDLTRVLAEMREQYEAMAERN [P2T] | 3.81 |
| TPGIDLTRVCAEMREQYEAMAERN [L10C] | 4.22 |
| TPGIDLTRVLAEMREQYEAMMERN [A21M] | 4.09 |
| TPGIDLTRCLAEMREQYEAMAERN [V9C] | 4.47 |
| TPGIDLTRVLAEMREQYEAMAGRN [E22G] | 4.02 |
| TPRIDLTRVLAEMREQYEAMAERN [G3R] | 3.39 |
| TPGIDLTRVLAAMREQYEAMAERN [E12A] | 3.15 |
| TPGIDLTRVLAETREQYEAMAERN [M13T] | 4.53 |
| TPGIDLTRVLAEMREQYEAMAEHN [R23H] | 4.21 |
| TPGIDLTRVLAWMREQYEAMAERN [E12W] | 3.06 |
| TPLIDLTRVLAEMREQYEAMAERN [G3L] | 2.81 |
| TPGIDLTRVLAEMREQYEAMSERN [A21S] | 4.65 |

| Variant | protein stability index |
| --- | --- |
| TPGITLTRVLAEMREQYEAMAERN [D5T] | 3.68 |
| TPGIDLTRYLAEMREQYEAMAERN [V9Y] | 3.01 |
| TWGIDLTRVLAEMREQYEAMAERN [P2W] | 3.75 |
| TPGIDLTRVLAEMREQYEQMAERN [A19Q] | 3.48 |
| TPGIDLTRNLAEMREQYEAMAERN [V9N] | 4.86 |
| TPGIDLTRHLAEMREQYEAMAERN [V9H] | 4.47 |
| TPGIDLTRVLAEMREQYEAMAESN [R23S] | 4.56 |
| TPGIDLTRVLAEMRYQYEAMAERN [E15Y] | 2.42 |
| TPGIDLTRVLAEMREFYEAMAERN [Q16F] | 3.21 |
| TPGIDLTRQLAEMREQYEAMAERN [V9Q] | 4.41 |
| TPGQDLTRVLAEMREQYEAMAERN [I4Q] | 3.72 |
| TPGIDLTRSLAEMREQYEAMAERN [V9S] | 3.41 |
| TPGIDLTRVLAEMREQYEAMAEVN [R23V] | 3.01 |
| TPGIDLDRVLAEMREQYEAMAERN [T7D] | 4.45 |
| TPGIDLFRVLAEMREQYEAMAERN [T7F] | 2.24 |
| TPGSDLTRVLAEMREQYEAMAERN [I4S] | 4.48 |
| TPGIDLTRRLAEMREQYEAMAERN [V9R] | 4.56 |
| TPGIDLTRVLAEMREQYEAMAPRN [E22P] | 3.98 |
| TPGIDLTRVLAEMREQYRAMAERN [E18R] | 3.47 |
| TPGIDLTRVLAEMCEQYEAMAERN [R14C] | 3.04 |
| TPGIDLTRVLAYMREQYEAMAERN [E12Y] | 3.37 |
| TPGIDLTRVPAEMREQYEAMAERN [L10P] | 5.31 |
| TPGIDLTRVLAEMMEQYEAMAERN [R14M] | 3.69 |
| TPGIDLTRVLYEMREQYEAMAERN [A11Y] | 3.74 |

| Variant | protein stability index |
| --- | --- |
| TPGIDLTRVLAEMREQYEAMAEPN [R23P] | 4.62 |
| TPGIDITRVLAEMREQYEAMAERN [L6I] | 4.13 |
| TPAIDLTRVLAEMREQYEAMAERN [G3A] | 3.35 |
| TPGIDLTRVLATMREQYEAMAERN [E12T] | 4.09 |
| TPGIDLTRVLAEMREQYEAMASRN [E22S] | 3.52 |
| TPGIDLTRVLAEMRCQYEAMAERN [E15C] | 3.34 |
| TPWIDLTRVLAEMREQYEAMAERN [G3W] | 3.37 |
| TPGIDLTRVLAEMREQYTAMAERN [E18T] | 3.06 |
| TPGIDLTDVLAEMREQYEAMAERN [R8D] | 2.73 |
| TPGIDLTRVLAHMREQYEAMAERN [E12H] | 3.08 |
| TPGIDLTRVLAEMVEQYEAMAERN [R14V] | 3.14 |
| TPGIDLTRVLAEMREQYEFMAERN [A19F] | 4.13 |
| TPGIDLTRVLHEMREQYEAMAERN [A11H] | 3.95 |
| TPGIDLTRVLAEMREDYEAMAERN [Q16D] | 4.61 |
| TPGIDLTRVLAEMRDQYEAMAERN [E15D] | 4.24 |
| TPGIDLTRVLAEMREQYEAMAARN [E22A] | 4.08 |
| TPGIDLTHVLAEMREQYEAMAERN [R8H] | 4.05 |
| TPGIPLTRVLAEMREQYEAMAERN [D5P] | 4.69 |
| TPGIDLTRVLAEMREQYEAMAERT [N24T] | 4.22 |
| TPGRDLTRVLAEMREQYEAMAERN [I4R] | 4.14 |
| TPGIDLTRVLAEMRPQYEAMAERN [E15P] | 3.83 |
| TPGIDLTRVLAEMREQYEMMAERN [A19M] | 3.54 |
| TPGIDLNRVLAEMREQYEAMAERN [T7N] | 3.92 |
| EPGIDLTRVLAEMREQYEAMAERN [T1E] | 4.3 |

| Variant | protein stability index |
| --- | --- |
| VPGIDLTRVLAEMREQYEAMAERN [T1V] | 2.67 |
| TPGIDLTRVLAEMREQYEAGAERN [M20G] | 4.22 |
| TPGIDLTRVLAEMREQAEAMAERN [Y17A] | 5.29 |
| TPGFDLTRVLAEMREQYEAMAERN [I4F] | 3.63 |
| TPGIDLTRVLAEMREQYEAMAERE [N24E] | 4.51 |
| TPGIDLTRVLAEMREVYEAMAERN [Q16V] | 3.82 |
| TPGIDATRVLAEMREQYEAMAERN [L6A] | 4.15 |
| TPGIDLTRVRAEMREQYEAMAERN [L10R] | 4.12 |
| TPGIDLTRVLAEMREQYEAMAKRN [E22K] | 4.39 |
| TPGIDLERVLAEMREQYEAMAERN [T7E] | 4.25 |
| TPGIDLTRVLAEMREWYEAMAERN [Q16W] | 3.73 |
| TPGIDLTRVLAEMDEQYEAMAERN [R14D] | 5.07 |
| TPGIDLTRVLAEMREQYEAMAERQ [N24Q] | 4.23 |
| TPGIDLTRVTAEMREQYEAMAERN [L10T] | 5.01 |
| TPGIDLTRVLAEMREQYEAMAEDN [R23D] | 4.84 |
| TPGIDLARVLAEMREQYEAMAERN [T7A] | 3.77 |
| TPGIDLTRMLAEMREQYEAMAERN [V9M] | 3.94 |
| TPGIDLTRVLAEMWEQYEAMAERN [R14W] | 4.01 |
| TPGIDLTRVLAEMAEQYEAMAERN [R14A] | 2.08 |
| TPGIDLTRVYAEMREQYEAMAERN [L10Y] | 4.4 |
| TPGISLTRVLAEMREQYEAMAERN [D5S] | 3.86 |
| TPGIDLTRVLANMREQYEAMAERN [E12N] | 3.87 |
